In paper PMC2174332:

Biological target: muscle-specific receptor tyrosine kinase (MuSK), Torpedo orthologue (Torpedo (endogenous in electric tissue))
Test: cross-linking

- percent of total MuSK in the 140-kD cross-link product: < 30%
Substance: 40-kD COOH-terminal fragment of MAGI-1c (Torpedo) (domain or fragment)
